Experiment [1] has as its target recombinant human VEGF165 (human, UniProt P15692-4 27-191). Kind of experiment: cell-based or functional assay.
The target in another experiment is T1, PlGF (UniProt P49763-2 21-149, limits assumed).
T1 construct: bought antigen coated on the ELISA plate; also called Placental GF
T1 sequence (looked up): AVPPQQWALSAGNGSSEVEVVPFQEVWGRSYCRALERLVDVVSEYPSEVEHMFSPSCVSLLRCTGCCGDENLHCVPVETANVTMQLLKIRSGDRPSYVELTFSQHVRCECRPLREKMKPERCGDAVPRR
The experiment in a line: direct bind ELISA, C-terminal VD.

A further experiment addresses T2, VEGF (UniProt P15692 27-191, limits assumed).
T2 construct: bought antigen coated on the ELISA plate
The experiment in a line: direct bind ELISA, N-terminal VD.

The next experiment has as its target T3, HGF (UniProt P14210 32-728).
T3 construct: Bought reagent
The experiment in a line: Biacore SPR. A general note: Surface plasmon resonance follows binding to a sensor surface in real time, without labels.

Some results are limits rather than exact numbers.

T3 sequence (P14210 32-728 limits assumed): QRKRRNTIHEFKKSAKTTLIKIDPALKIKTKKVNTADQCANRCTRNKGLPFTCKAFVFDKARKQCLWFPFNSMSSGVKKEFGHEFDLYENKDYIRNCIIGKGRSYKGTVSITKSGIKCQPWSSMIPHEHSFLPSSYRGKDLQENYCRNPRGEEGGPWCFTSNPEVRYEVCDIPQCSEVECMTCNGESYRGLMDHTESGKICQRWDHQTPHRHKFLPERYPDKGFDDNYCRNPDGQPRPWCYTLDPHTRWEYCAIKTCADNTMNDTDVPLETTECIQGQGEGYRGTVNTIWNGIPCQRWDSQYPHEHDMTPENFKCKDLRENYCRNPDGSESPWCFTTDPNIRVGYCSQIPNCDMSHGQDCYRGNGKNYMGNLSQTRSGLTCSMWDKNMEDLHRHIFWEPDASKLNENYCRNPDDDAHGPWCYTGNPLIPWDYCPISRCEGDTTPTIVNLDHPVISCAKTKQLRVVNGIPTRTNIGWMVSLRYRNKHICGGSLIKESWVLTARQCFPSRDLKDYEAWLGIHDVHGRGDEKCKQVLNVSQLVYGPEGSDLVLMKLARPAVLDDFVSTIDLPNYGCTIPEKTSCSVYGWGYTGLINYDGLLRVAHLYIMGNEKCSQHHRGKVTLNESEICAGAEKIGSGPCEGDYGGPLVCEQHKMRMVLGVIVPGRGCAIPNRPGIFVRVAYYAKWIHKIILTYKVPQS
T2 sequence (P15692 other isoform, or with tags, fused parts or gaps limits assumed): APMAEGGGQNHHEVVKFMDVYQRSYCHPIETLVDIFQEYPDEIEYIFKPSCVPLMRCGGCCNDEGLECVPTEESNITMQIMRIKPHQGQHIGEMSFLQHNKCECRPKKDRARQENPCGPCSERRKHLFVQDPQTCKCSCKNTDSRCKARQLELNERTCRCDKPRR
recombinant human VEGF165, sequence (P15692 other isoform, or with tags, fused parts or gaps limits assumed): as above
Method for HGF: The BIACORE assay (Biacore, Inc, Piscataway, N.J.) determines the affinity of antibodies or DVD-Ig with kinetic measurements of on-rate and off-rate constants. Binding of antibodies or DVD-Ig to a target antigen (for example, a purified recombinant target antigen) is determined by surface plasmon resonance-based measurements with a Biacore® 1000 or 3000 instrument (Biacore® AB, Uppsala, Sweden) using running HBS-EP (10 mM HEPES [pH 7.4], 150 mM NaCl, 3 mM EDTA, and 0.005% surfactant P20) at 25° C. […] For example, approximately 5000 RU of goat anti-mouse IgG, (Fcγ), fragment specific polyclonal antibody (Pierce Biotechnology Inc, Rockford, Ill.) diluted in 10 mM sodium acetate (pH 4.5) is directly immobilized across a CM5 research grade biosensor chip using a standard amine coupling kit according to manufacturer's instructions and procedures at 25 μg/ml. Unreacted moieties on the biosensor surface are blocked with ethanolamine. Modified carboxymethyl dextran surface in flowcell 2 and 4 is used as a reaction surface. Unmodified carboxymethyl dextran without goat anti-mouse IgG in flow cell 1 and 3 is used as the reference surface. For kinetic analysis, rate equations derived from the 1:1 Langmuir binding model are fitted simultaneously to association and dissociation phases of all eight injections (using global fit analysis) with the use of Biaevaluation 4.0.1 software. Purified antibodies or DVD-Ig are diluted in HEPES-buffered saline for capture across goat anti-mouse IgG specific reaction surfaces. Antibodies or DVD-Ig to be captured as a ligand (25 μg/ml) are injected over reaction matrices at a flow rate of 5 μl/min. The association and dissociation rate constants, kₒₙ (M⁻¹s⁻¹) and koff (s⁻¹) are determined under a continuous flow rate of 25 μl/min. Rate constants are derived by making kinetic binding measurements at different antigen concentrations ranging from 10-200 nM. The equilibrium dissociation constant (M) of the reaction between antibodies or DVD-Igs and the target antigen is then calculated from the kinetic rate constants by the following formula: KD=koff/kₒₙ. Binding is recorded as a function of time and kinetic rate constants are calculated.
Method for PlGF: Enzyme Linked Immunosorbent Assays to screen for antibodies that bind a desired target antigen were performed as follows. […] Plates were washed four times with PBS containing 0.02% Tween 20. Plates were blocked by the addition of 300 μL/well blocking solution (non-fat dry milk powder, various retail suppliers, diluted to 2% in PBS) for ½ hour at room temperature. Plates were washed four times after blocking with PBS containing 0.02% Tween 20.
Plates were washed 4 times with PBS containing 0.02% Tween 20.

B1: DVD470 (bispecific antibody, human IgG1, kappa)
heavy: not shown
light: DIQMTQSPSSLSASVGDRVTITCSASQDISNYLNWYQQKPGKAPKVLIYFTSSLHSGVPSRFSGSGSGTDFTLTISSLQPEDFATYYCQQYSTVPWTFGQGTKVEIKRTVAAPSVFIFPPDIQMTQSPSSLSASVGDRVTITCRASQDVSTAVAWYQQKPGKAPKLLIYSASFLYSGVPSRFSGSGSGTDFTLTISSLQPEDFATTYYCQQSYTGTVTFGQGTKVEIKRTVAAPSVFIFPPSDEQLKSGTASVVCLLNNFYPREAKVQWKVDNALQSGNSQESVTEQDSKDSTYSLSSTLTLSKADYEKHKVYACEVTHQGLSSPVTKSFNRGEC
Regarding B1, in experiment [1], the “inhibition of HUVEC proliferation (IC50)” value came to 0.45 nM.

B2: DVD482 (bispecific antibody, human IgG1, kappa)
heavy: not shown
light: B1 light
As to B2, the “inhibition of HUVEC proliferation (IC50)” value in experiment [1] turned out to be 0.32 nM.

B3: DVD568 (bispecific antibody, human IgG1, kappa)
heavy: not shown
light: DIQMTQSPSSLSASVGDRVTITCRASQDVSTAVAWYQQKPGKAPKLLIYSASFLYSGVPSRFSGSGSGTDFTLTISSLQPEDFATYYCQQSYTTPPTFGQGTKVEIKRTVAAPSVFIFPPAIQMTQSSSSFSVSLGDRVTITCKASEDIYNRFAWYQQKPGNAPRLLISGAASLEAGVPSRFSGSGSGQDYTLSITSLQTEDVATYYCQQYWSTPWTFGGGTKLEIKRTVAAPSVFIFPPSDEQLKSGTASVVCLLNNFYPREAKVQWKVDNALQSGNSQESVTEQDSKDSTYSLSSTLTLSKADYEKHKVYACEVTHQGLSSPVTKSFNRGEC
notes: HC linker short, LC linker long; also called DVD-Ig DVD568
For B3, the half-maximal effective concentration (EC50) (as a rule, the concentration needed to bring the measured effect to its halfway point) with PlGF turned out to be 2.84 nM; with VEGF, 3.14 nM.

B4: DVD474 (bispecific antibody, human IgG1, kappa)
heavy: not shown
light: DIQMTQSPSSLSASVGDRVTITCRASQVIRRSLAWYQQKPGKAPKLLIYAASNLASGVPSRFSGSGSGTDFTLTISSLQPEDFATYYCQQSNTSPLTFGQGTKVEIKRTVAAPSVFIFPPDIQMTQSPSSLSASVGDRVTITCRASQDVSTAVAWYQQKPGKAPKLLIYSASFLYSGVPSRFSGSGSGTDFTLTISSLQPEDFATTYYCQQSYTGTVTFGQGTKVEIKRTVAAPSVFIFPPSDEQLKSGTASVVCLLNNFYPREAKVQWKVDNALQSGNSQESVTEQDSKDSTYSLSSTLTLSKADYEKHKVYACEVTHQGLSSPVTKSFNRGEC
Take B4: the “inhibition of HUVEC proliferation (IC50)” value in experiment [1] turned out to be 0.42 nM.

B5: DVD486 (bispecific antibody, human IgG1, kappa)
heavy: not shown
light: B4 light
For the molecule B5, the “inhibition of HUVEC proliferation (IC50)” value in experiment [1] amounted to 0.88 nM.

B6: DVD566 (bispecific antibody, human IgG1, kappa)
heavy: not shown
light: DIQMTQSPSSLSASVGDRVTITCSASQDISNYLNWYQQKPGKAPKVLIYFTSSLHSGVPSRFSGSGSGTDFTLTISSLQPEDFATYYCQQYSTVPWTFGQGTKVEIKRTVAAPSVFIFPPAIQMTQSSSSFSVSLGDRVTITCKASEDIYNRFAWYQQKPGNAPRLLISGAASLEAGVPSRFSGSGSGQDYTLSITSLQTEDVATYYCQQYWSTPWTFGGGTKLEIKRTVAAPSVFIFPPSDEQLKSGTASVVCLLNNFYPREAKVQWKVDNALQSGNSQESVTEQDSKDSTYSLSSTLTLSKADYEKHKVYACEVTHQGLSSPVTKSFNRGEC
notes: HC linker short, LC linker long; also called DVD-Ig DVD566
For B6, the EC50 turned out to be 1.42 nM in the experiment with PlGF and 1.49 nM in the experiment with VEGF.

B7: AB071 (antibody, human IgG1, kappa, L234A L235A, V domains shown)
VH: EVQLVESGGGLVQPGGSLRLSCAASGFTINASWIHWVRQAPGKGLEWVGAIYPYSGYTNYADSVKGRFTISADTSKNTAYLQMNSLRAEDTAVYYCARWGHSTSPWAMDYWGQGTLVTVSS
VL: DIQMTQSPSSLSASVGDRVTITCRASQVIRRSLAWYQQKPGKAPKLLIYAASNLASGVPSRFSGSGSGTDFTLTISSLQPEDFATYYCQQSNTSPLTFGQGTKVEIKR
For B7, in experiment [1], the “inhibition of HUVEC proliferation (IC50)” value stood at 2.5 nM.

B8: DVD034 (bispecific antibody, human IgG1, kappa)
heavy: not shown
light: DIQMTQSPSSVSASVGDRVTITCRASQGISSWLAWYQQKPGKAPNLLIYEASSLQSGVPSRFGGSGSGTDFTLTISSLQPEDFATYYCQQANGFPWTFGQGTKVEIKRTVAAPDVVMTQSPLSLPVTPGEPASISCRSSQSLLHSNGFNYVDWYLQKPGQSPHLLIYFGSYRASGVPDRFSGSGSGTDFTLKISRVEAEDVGVYYCMQALQTPPWTFGQGTKVEIRRTVAAPSVFIFPPSDEQLKSGTASVVCLLNNFYPREAKVQWKVDNALQSGNSQESVTEQDSKDSTYSLSSTLTLSKADYEKHKVYACEVTHQGLSSPVTKSFNRGEC
notes: N-terminal VD HGF, C-terminal VD RON; also called DVD034H; DVD034L
For B8, in the experiment with HGF, the equilibrium dissociation constant (Kd) – broadly, the concentration at which binding is half-saturated – was 0.0215 nM; the koff (in general, the first-order rate constant of dissociation) turned out to be 6.55e-05 s⁻¹; the kon (usually the rate constant with which the complex forms) turned out to be 3.05e+06 M⁻¹ s⁻¹.

B9: DVD476 (bispecific antibody, human IgG1, kappa)
heavy: not shown
light: DIQMTQSPSSLSASVGDRVTITCSASQDISNYLNWYQQKPGKAPKVLIYFTSSLHSGVPSRFSGSGSGTDFTLTISSLQPEDFATYYCQQYSTVPWTFGQGTKVEIKRTVAAPDIQMTQSPSSLSASVGDRVTITCRASQDVSTAVAWYQQKPGKAPKLLIYSASFLYSGVPSRFSGSGSGTDFTLTISSLQPEDFATTYYCQQSYTGTVTFGQGTKVEIKRTVAAPSVFIFPPSDEQLKSGTASVVCLLNNFYPREAKVQWKVDNALQSGNSQESVTEQDSKDSTYSLSSTLTLSKADYEKHKVYACEVTHQGLSSPVTKSFNRGEC
For the molecule B9, the “inhibition of HUVEC proliferation (IC50)” value in experiment [1] was 0.24 nM.

B10: DVD570 (bispecific antibody, human IgG1, kappa)
heavy: not shown
light: DIQMTQSPSSLSASVGDRVTITCRASQVIRRSLAWYQQKPGKAPKLLIYAASNLASGVPSRFSGSGSGTDFTLTISSLQPEDFATYYCQQSNTSPLTFGQGTKVEIKRTVAAPSVFIFPPAIQMTQSSSSFSVSLGDRVTITCKASEDIYNRFAWYQQKPGNAPRLLISGAASLEAGVPSRFSGSGSGQDYTLSITSLQTEDVATYYCQQYWSTPWTFGGGTKLEIKRTVAAPSVFIFPPSDEQLKSGTASVVCLLNNFYPREAKVQWKVDNALQSGNSQESVTEQDSKDSTYSLSSTLTLSKADYEKHKVYACEVTHQGLSSPVTKSFNRGEC
notes: outer AB071 (VEGF), inner AB074 (PlGF); HC linker short, LC linker long; also called DVD-Ig DVD570
Regarding B10, the 50% effective concentration (EC50) was determined as 1.44 nM in the experiment with PlGF and 17.6 nM with VEGF.

B11: AB012 (antibody, human IgG1, kappa, V domains shown)
VH: QVQLVESGGGLVKPGGSLRLSCAASGFTFSDYYMSWIRQAPGKGLEWVSYISSSGSTIYYADSVKGRFTISRDNAKNSLYLQMNSLRAEDTAVYYCARDEYNSGWYVLFDYWGQGTLVTVSS
VL: DIQMTQSPSSVSASVGDRVTITCRASQGISSWLAWYQQKPGKAPNLLIYEASSLQSGVPSRFGGSGSGTDFTLTISSLQPEDFATYYCQQANGFPWTFGQGTKVEIKR
As for B11, in the experiment with HGF, the Kd is < 0.0284 nM, the off-rate constant (koff) was found to be 0.000284 s⁻¹ and the kon is > 1e+07 M⁻¹ s⁻¹.

For the origin of these results see patent US20100260668A1 (published 2010).
